Target: D-allulose 3-epimerase (DaeB) from Bacillus sp. KCTC 13219 (Bacillus sp. KCTC 13219)
Assay: SEC; Superdex 200 Increase 10/300 GL, 50 mM Tris pH 8.0, 300 mM NaCl, 0.5 mL/min; calibrated with ribonuclease A, ovalbumin, conalbumin and aldolase; self-association of purified DaeB

Substance: D-allulose 3-epimerase (DaeB) from Bacillus sp. KCTC 13219 (enzyme)
- stoichiometry N: 2

Source: PMC7934257
